Assays:
[1] = target: gp120 envelope glycoprotein (HIV-1 IIIB, UniProt P04578 33-511); test: SPR; HEPES-KCl; up to 1000 nM; SPR (Biacore T100, CM5 chip), HEPES-KCl buffer (composition, pH and temperature not given), oligos 15.6-1000 nM, heated 95 C 5 min and cooled to room temperature, 20 uL/min, 120 s contact and dissociation, 1 M KCl regeneration; conditions: protein: recombinant
nucleolin (NCL) = nucleolin (NCL) (human (human recombinant protein), UniProt P19338 1-710); test: SPR; HEPES-KCl; SPR (Biacore T100, CM5 chip), HEPES-KCl buffer (composition, pH and temperature not given), oligos 15.6-1000 nM, heated 95 C 5 min and cooled to room temperature, 20 uL/min, 120 s contact and dissociation, 1 M KCl regeneration
Sequence of nucleolin (NCL) (P19338 whole entry): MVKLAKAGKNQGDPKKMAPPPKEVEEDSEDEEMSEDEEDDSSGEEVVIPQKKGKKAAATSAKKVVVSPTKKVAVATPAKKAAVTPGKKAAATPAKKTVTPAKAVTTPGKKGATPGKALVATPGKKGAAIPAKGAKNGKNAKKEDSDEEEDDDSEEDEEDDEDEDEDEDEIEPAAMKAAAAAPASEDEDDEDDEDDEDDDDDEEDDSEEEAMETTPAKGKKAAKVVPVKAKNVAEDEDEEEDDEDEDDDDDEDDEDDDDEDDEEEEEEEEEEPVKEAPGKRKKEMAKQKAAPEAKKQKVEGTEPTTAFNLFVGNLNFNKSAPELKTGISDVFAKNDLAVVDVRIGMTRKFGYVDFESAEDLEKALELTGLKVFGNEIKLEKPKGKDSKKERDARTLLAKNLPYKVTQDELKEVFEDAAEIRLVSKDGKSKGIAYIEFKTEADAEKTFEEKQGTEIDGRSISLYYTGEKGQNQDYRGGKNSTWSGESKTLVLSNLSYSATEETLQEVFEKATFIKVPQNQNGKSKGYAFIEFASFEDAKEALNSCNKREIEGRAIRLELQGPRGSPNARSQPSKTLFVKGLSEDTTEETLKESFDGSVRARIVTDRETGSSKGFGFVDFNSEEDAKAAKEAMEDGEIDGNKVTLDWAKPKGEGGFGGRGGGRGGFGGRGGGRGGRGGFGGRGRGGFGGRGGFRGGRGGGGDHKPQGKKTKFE

B1: SCRA (ssDNA)
DNA: TTTTTGGAGCGTGTGTGCGCGAGAGCGTGCGCGTGGCGAGCGTGGAGTGGTTTTT
[1]; G-rich, non-G4
  binding result: no binding

## CCTCCTCCTCCTTCTCCTCCTCCTCC (ssDNA) [CRO26]
[1]; C-rich, negative control
  binding result: no binding

## GGTGGTGGTGGTTGTGGTGGTGGTGG (structured_DNA) [AS1411]
Nucleolin (NCL); G4, described as dimeric
  Kd: 34.2 nM

## GGGAGGCGTGGCCTGGGCGGGACTGGGG (structured_DNA) [LTR-III]
Nucleolin (NCL); G4
  Kd: 76.3 nM
